Each block holds one binder with its values, some of them ahead of it.
Target: biotinylated-YE (UpxY of the PSE operon, Bacteroides fragilis) (Bacteroides fragilis NCTC 9343)
Assay: BLI

Kd: 88 nM
koff: 0.0096 s⁻¹
kon: 110000 M⁻¹ s⁻¹
B1: ZE (UpxZ of the PSE operon, Bacteroides fragilis) (natural protein)
chain: MNTLMTQIHELQHVAHELLYLGADGSPIYTDSFRQLNTEVLQKSDALFALKGENPEEEARLCLALLMGYNATIYDYGDKESKKQVILDRSLLVLESLPSSLLKCQLLTYCYGEVFEEELAKEAHAIIDYWDNKTLSIDEQETVDMLKMIEENQYPNNYID

Kd: 0.9 nM
kon: 1.1e+06 M⁻¹ s⁻¹
B2: ZA (UpxZ of the PSA operon, Bacteroides fragilis) (natural protein)
chain: MNQVQNLQHIARELLYLGMDGSPIYTDHFRQLNTEVFRLSEALFSMKGATSEEEAAICLSLLMGYNATIYNDGDKESKIQSILDRSFAVLDHLPASLLKCQLLTYCYGEVFEEDLAQEAHQIMDSWKNRALSEEELEVMETLQTMEDNRYPCSEVED
